# Key:
# [1] = biological target: FGF8b; assay: SPR
# [2] = biological target: FGF1 (UniProt P05230); assay: SPR
# Chain of FGF1 (P05230 whole entry): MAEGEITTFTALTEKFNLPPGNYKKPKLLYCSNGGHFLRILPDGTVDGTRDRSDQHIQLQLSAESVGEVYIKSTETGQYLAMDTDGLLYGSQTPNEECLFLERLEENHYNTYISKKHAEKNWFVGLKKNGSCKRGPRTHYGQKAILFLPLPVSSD
Kd [1] [nM],Kd [2] [nM],Substance
888,–,"D1-AB-D2-D3 (FGFR3c), full-length FGFR3c ectodomain (from UniProt P22607 23-375) (domain or fragment)"
367,310,"D1-D2-D3^ΔAB/linker (FGFR3c), naturally occurring isoform of FGFR3c lacking the AB/linker (domain or fragment)"

# Reference: PMC3378326
